# Publication PMC3578147
# Molecular target: Rev-independent (RI) HIV-1 Gag-CFP (HIV-1)
# Experiment: FRET or BRET
row,Substance,FRET efficiency
1,HIV.Rev-YFP (HIV-1 Rev fused to YFP) (from UniProt P04618 1-116) (natural protein),16.4%
2,YFP-HIV.NC (HIV-1 NC protein fused to YFP) (domain or fragment),7.8%
